Target: T1, rEAAT3/EAAC1 (rat excitatory amino acid transporter 3), full length, expressed in HEK 293T cells (rat, UniProt P51907 1-523)
T1 sequence (looked up): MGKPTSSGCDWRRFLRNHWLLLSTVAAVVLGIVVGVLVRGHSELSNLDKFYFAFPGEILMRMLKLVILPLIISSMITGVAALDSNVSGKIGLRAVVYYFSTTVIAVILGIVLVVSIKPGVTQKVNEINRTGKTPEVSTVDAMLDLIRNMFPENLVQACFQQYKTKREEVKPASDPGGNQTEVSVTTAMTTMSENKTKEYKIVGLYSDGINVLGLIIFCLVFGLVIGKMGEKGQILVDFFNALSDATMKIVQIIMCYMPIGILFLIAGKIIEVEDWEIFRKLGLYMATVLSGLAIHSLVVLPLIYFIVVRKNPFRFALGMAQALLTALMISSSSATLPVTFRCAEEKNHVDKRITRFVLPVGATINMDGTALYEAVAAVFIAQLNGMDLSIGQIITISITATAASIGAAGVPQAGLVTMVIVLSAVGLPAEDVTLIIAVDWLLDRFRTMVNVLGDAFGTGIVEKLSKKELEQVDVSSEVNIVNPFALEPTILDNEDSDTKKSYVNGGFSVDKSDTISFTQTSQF
Experiment: cell-based or functional assay

decrease in Na+-dependent L-[3H]-glutamate uptake in HEK 293T cells, co-transfection at equal ratio: ~20%
B1: GTRAP3-18 (Glutamate Transporter Associated Protein of EAAT3), HA-tagged, expressed in HEK 293T cells (other, not shown: small tags and cut ends)
chain: MDVNLAPLRAWDDFFPGSDRFARPDFRDISKWNNRVVSNLLYYQTNYLVVAAMMISVVGFLSPFNMILGGIIVVLVFTGFVWAAHNKDILRRMKKQYPTAFVMVVMLASYFLISMFGGVMVFVFGITFPLLLMFIHASLRLRNLKNKLENKMEGIGLKKTPMGIILDALEQQEDSINKFADYISKARE

Reference: patent US20060211042A1 (Johns Hopkins, published 2006)
